Target: EBOV GP on recombinant EBOV-eGFP virus (Zaire ebolavirus (EBOV))
Test: cell-based or functional assay

Binder	Neutralization, IC50 ng/mL [ng/mL]
EBOV-451 (antibody, V domains shown) VH: EVQLVESGGSVVRPGGSLRLSCAASGFKFDEYGMSWVRQAPGKGLEWVSGITWNGGVRTYADSVKGRFTISRDNAKNSVYLQMKSLRGEDTALYYCVSWGERYDAYFDYWGQGTLVTVSS VL: EIVLTQSPGSLSLSPGERATLSCRASQSVNSRYFAWYQQRPGQAPRLLIYATSTRATGIPDRFSGSGSGTDFTLTISRLEPEDFAVYSCQQYGSSPYTFGQGTKLEIK	> 200000
EBOV-520 (antibody, V domains shown) VH: QVQLQESGPGLGKPSETLSLSCTVSGASIRGYFWNWIRQPPGKGLEWIGYIHSTGSTNYNPSLKSRVTISVDTSKNQVSLNVNSVTAADTAVYFCARGAWNVATVYYYYGMDVWGQGTLVTVSS VL: EIVLTQSPGTLSLSPGERATLSCRASQSVSSSYFAWYQQKPGQAPRLLISGTSTRAPGIPDRFSGSGSGTDFTLTISRLEPEDFAVYFCQQYGNSLYTFGQGTKLEIK	5740
EBOV-518 (antibody, V domains shown) VH: QVTLKESGPTLVKPTQTLTLTCTFSGFSMNSSGMSVTWIRQPPGKALECLALIYWDDDKWYGPSLETRVTITKDASKNQVVLTMTNMDPVDTATYYCAHSGGLVAGAFDYWGQGTLVTVSS VL: EIVMTQSPDSLTVSLGERATINCRSSQSVLYRVNSKNYLAWYQQKAGQTPKLIINWASTRESGVPDRFSGSGSGTDFTLTISSLQAEDVAVYYCQQYYNSPRTFGQGTKVEIK	> 200000
EBOV-510 (antibody, V domains shown) VH: QVQLQESGPGLVKPSQTLSLTCTVSGGSITSGDYYLTWVRQPPGKGLEWIGHIYYSGSTSYNPSLKSRLLMSVDTSKNQFSLRLSSVTAADTAVYYCARESDGDPSRLYFYFAMDVWGQGTLVTVSS VL: QSALTQPASVSGSPGQSITISCTGTSSDVGGSYFVSWYQHHPGKAPKLMISEVSNRPSGVSNRFSGSKSGNTASLTISGLRTEDEADYYCSSYTSNTTLVFGGETKVTVL	> 200000
EBOV-434 (antibody, V domains shown) VH: QVQLVQSGAEVKKPGASVKVSCKASGYTFTGYYMFWVRQAPGQGLEWMGWINPNSGGTNYTQKFQGRVTMTRDTSISTAYMELSRLKSDDTAVYYCARDSGELLFVGSDVWGQGTLVTVSS VL: DIQMTQSPSSVSASVGDRVTITCRASLDISYWLAWYQQKPGKAPKLLIYAASNLQSGVPSRFSGSGSGTDFTLTISSLQPEDFATYYCQQANSFPQTFGQGTRLELK	> 200000
EBOV-514 (antibody, V domains shown) VH: QVQLQESGPGLVKPSQTLSLTCTVSGASITGGDDFWSWIRQPPGKGLEWIGFIHHSGNAYYRSSLKSRVHFSVDTSKDQFSLTLTSVTAADTAVYYCARDKAQAYGLLYHYHTDVWGKGTLVTVSS VL: EIVMTQSPATLSVSPGERATLSCRASQSVSSNLAWYQQKPGLAPRLLIYGAFTRATDIPDRFSGSGSGTEFTLTISSLQSEDFAIYYCQYYNDWPPGYTFGQGTKLEIK	> 200000
EBOV-442 (antibody, V domains shown) VH: EVQLVESGGGLVKPGGSLRLSCTGSGGTGFTFKYAGMSWVRQAPGKGPEWIGRIKSRIDGGTTDYAAPVKDRFIVSRDDSRNTLYLQMNSLKTEDTAVYYCATGSGKGPSASFGESYYYYDFINVWGKGTTVTVSS VL: ESVLTQSPGTLSLSPGERATLSCRASQSISRKYLAWYQQKPGQAPRLLIYGSSSRATGIPDRFSGSGSGTDFTLTISRLEPEDFAVYYCHQYESSPWTFGQGTKVEIK	467
EBOV-517 (antibody, V domains shown) VH: EVQLVESGGGLVQPGGSLRLSCGASGFTFNKYWMTWVRQAPGKGLEWVANINQDGSEKYFAESVKGRFTVSRDNAKNSLYLQMNSLRAEDTAVYYCARGASIEVEILYYYHMDVWGKGTLVTVSS VL: EIVMTQSPATLSVSPGERATLSCRASQSITTHLAWYQQKPGQAPRLLIYDTSTRATGIPARFSGSGSGTEFTLTISNMQSEDFAVYYCQQYHTWPPLTFGGGTKVEIK	> 200000
EBOV-511 (antibody, V domains shown) VH: QLQLQESGPGLVKPSETLSLSCTVSGDSISANNYFWGWIRQPPGKELEWIGSIHNSGSTYYNPSLKSRVTTSVDTSRTQFSLKLHSVTAADAAIYYCARHLAPISGVIFIPSFFDSWGQGTLVTVSS VL: EIVMTQSPATLSVSPGERATLSCRASQSVSSNLAWYQQRPGQAPRLLIFDASTRATGVPARFSGSGSGTEFTLTISSLQSEDFALYYCQQYNDWPPRLTFGGGTKVEIK	> 200000
EBOV-507 (antibody, V domains shown) VH: QVQLVQSGAEVKKPGASVKVSCKASGYTFNNYLINWVRQAPGQGLEWMGWINPHSGGTEYAQQFQGRLTVTRDTSIRTAYMELRGLTFDDSAMYYCWIWFRSETFDFWGQGTLVTVSS VL: DIQMTQSPSAMSASVGDRVTITCRASQDISNYLAWFQQKPGQGPKRLIFEASILHSGVPSRFSGSGSGTEFTLTISSLQPEDFATYYCLQHNTYLTFGQGTKVEIK	> 200000
EBOV-446 (antibody, V domains shown) VH: QVQLVQSGAEVKKPGASVKVSCKASGYTFTDYYIYWVRQAPGQGLEWMGWLNPNSGGTDYAQKFQGRVTMTRDTSIRTAYMDLSRLRSDDTAVYYCARGRRHGAYVDWGQGTLVTVSS VL: DIQLTQSPSFLSASVGDRVTITCRASQGISTYLAWYQQKPGKAPNLLIYDTSTLQSGVPSRFSGSASGTEFTLTISSLQPEDFATYYCQQLNFYLGGLTFGQGTRLEIK	> 200000
EBOV-524 (antibody, V domains shown) VH: QVQLVESGGGVVQPGGSLRLSCAASGFKFSTYGMNWVRQVPGQGLEWVSFVRHDGSNKYYSDSVKGRFTIFRDNSNNKLYLQMNNLRAEDTAVYYCAKDVLDCSRADCFIYYYYMDVWGKGTLVTVSS VL: DIQMTQSPSSVSASPGDRVTITCRASQTISGWLAWYQQKPGKAPKLLIYDVSTLQSGVPSRFSGGGSGTEFTFTISSLQPEDYATYFCQQGNRIPLSFGGGTRVEIK	> 200000
EBOV-508 (antibody, V domains shown) VH: QVQLVQSGAEVKKPGASVKVSCKASGYTFINYYMHWVRQAPGQGLEWMGTINPSTGRPNYAQKFQGRVTLTRDTSTTTVDMELSSLTSEDTAVYYCVSFQFYFDYWGQGTLVTVSS VL: DIQMTQSPSAMSPSVGDRVTITCRASQGINNYLAWFQQKPGKVPKRLIYAASNLQSGVPSRFSGSGSGTEFTLTISSLQPEDFATYYCLQHNSYPWTFGQGTKVEIN	> 200000

From patent publication US20210403538A1
